The supplement of paper PMC9170038

Test system: MS2 coat protein
Assay: apparent KD of MS2 coat protein; designed switch direction (-1 OFF switch, 1 ON switch): 1; higher = weaker reporter binding
How it was run: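 Transcription of designed RNA switches on Illumina chips was done by stalled E. coli RNA polymerase. SNAP-549-labelled MS2 coat protein was then titrated in doubling steps from 0.7 or 1.5 nM to 3 µM, with steps of 0.8–1.5 h at the lowest and 10–20 min at the highest concentration. The per-design median over clusters of curve-fitted normalised fluorescence is reported as apparent KD.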

[1] = input ligand: microRNA oligo, concentration not stated
[2] = Eterna round: R95, input ligand: FMN 200 uM
[3] = Eterna round: R95, input ligand: microRNA oligo, concentration not stated
[4] = Eterna round: R95, input ligand: none

Sequence | apparent KD of MS2 coat protein (input ligand: FMN 200 uM) | apparent KD of MS2 coat protein [1] | apparent KD of MS2 coat protein (input ligand: none) | apparent KD of MS2 coat protein [2] | apparent KD of MS2 coat protein [3] | apparent KD of MS2 coat protein [4]
AGGCUCAGAGCAGGAUAUAUGUGAUCACAUGAGGAUCACCCAUGUCUCGAGCUUCGGCUCGAGACAUAGAAGGGCUCUGAGCCA [SSNG2/3-B1] (Eterna round: R96, puzzle: Same State NG 2) | 2490 nM | 39.3 nM | 28.3 nM | – | – | –
AUAAAACAUGAGGAUCACCCAUGUCAACAAAGUCGAGGAUAUGGGCAAAUAUAAUAAGAACCAGAAGGCGAAUAAU [salish99_ss1_r3_023] (puzzle: Same State 1) | – | – | – | 36.1 nM | 204 nM | 336 nM
AAACGGCCCAACGAAGGGCCACAUGAGGAUCACCCAUGUACAUAGGAUAUCACGCCAACAAAGCGUGAGAAGGGUGAUUAAAAC [Lezaer] (Eterna round: R96, puzzle: Same State NG 3) | 270 nM | 11.6 nM | 163 nM | – | – | –
GUUAAACAUGAGGAUCACCCAUGUCAAUGUAGUCGAGGAUAUGGGCAGCUAUGAGGCGUACUAGAAGGCGAAGAGG [Mat - Same State 1 - Mod of JL - D11] (puzzle: Same State 1) | – | – | – | 121 nM | 236 nM | 334 nM
UUGAAGAAUUAAGGAUAUCGAGUACAUAUGUUAAACAUGAGGAUCACCCAUGUGGGUUGCGGUAUCGAGAAGGUAAAUUACAAG [JL SSNG2 1.42] (Eterna round: R96, puzzle: Same State NG 2) | 30.2 nM | 25.6 nM | 36.5 nM | – | – | –
GCGGAACAUGAGGAUCACCCAUGUAAAGGGUGUAAAGGAUAUUAUUGGGAGAAGGUAGGGUAAGAAGGUUGCUUGG [JR_SS1_Sub088] (Eterna round: R96, puzzle: Same State 1) | – | 432 nM | – | – | – | –
GCUCGAUGAGCUGUUUACAUGAGGAUCACCCAUGUAGAUGCGGAGGAUAUUUACGUGCUUUAUGUAGAGAAGGCCGUAUCGAGC [SameState NG3 #80] (Eterna round: R96, puzzle: Same State NG 3) | 14 nM | 24.5 nM | 24.1 nM | – | – | –
UUAACAUGAGGAUCACCCAUGUAUAGGGAGUUUGCAAUUUGACAGGAUAUUGAAGAUUUAUAUAGCAAGAAGGGUCGUUAGUCU [JR_SSNG3_Sub005] (Eterna round: R96, puzzle: Same State NG 3) | 38 nM | 44.9 nM | 53.6 nM | – | – | –
UUGUUUUGAAAUUUACAUGAGGAUCACCCAUGUCGUGAGACAGAGGAUAUACAGGAAUGUAGGUAGUAGAAGGCUGUUUUGUGU [JR_SSNG3_Sub100] (Eterna round: R96, puzzle: Same State NG 3) | 49.5 nM | 97.6 nM | 123 nM | – | – | –
UGAAUAGUUACAGGAUAUCAUGCGAAAAUUGCGUGAGAAGGGUGGGUGUUGUGCGCUAAGUGCUACAUGAGGAUCACCCAUGUU [SameState NG1 #37] (Eterna round: R96, puzzle: Same State NG 1) | 325 nM | 28.8 nM | 213 nM | – | – | –
UAGCUCGUGUGAGGAUAUGCCGCCGUUUCGGCUGCAGAAGGUGCUACGUUACAUGAGGAUCACCCAUGUCUCUGUUGUUUCGUG [salish99_SSNG1_r04_957] (Eterna round: R96, puzzle: Same State NG 1) | 18.9 nM | 19.6 nM | 21.8 nM | – | – | –
GGUCCAGCCUGAGCUGGACAAAAGCAUGUACAUGAGGAUCACCCAUGUCAUGUACAAGUUUUUUGCUCGUCUUAAAA [JL mod - D87 - 12] (puzzle: Sensor for hsa-mir-208a) | – | – | – | 35.3 nM | 10.6 nM | 38.7 nM
GUGGUCAGACAUGAGGAUCACCCAUGUGGAAUAAAUAAGGGACAGGAUAUCUAAUAUAGGAUAUAAGAGAAGGGUUGGUUGGUG (Eterna round: R96, puzzle: Same State NG 3) | 69.3 nM | 44.8 nM | 73.5 nM | – | – | –
AGUAUUUAUGCAGGAUAUGAUUAACAUGAGGAUCACCCAUGUGGUGUUGUGAGUAAGGAGAGUGAUCAGAAGGGCAUUUUUUUU [JMF's solution 74] (Eterna round: R96, puzzle: Same State NG 2) | 512 nM | 324 nM | 380 nM | – | – | –
GCGGUACCUAACAUGAGGAUCACCCAUGUUCCGGAAACGGCACAGGAUAUCUGUCCGAAAAGGUCAGAGAAGGGUGAAAUCCGC [Fiskers NG3ss - 93] (Eterna round: R96, puzzle: Same State NG 3) | 361 nM | 51.6 nM | 93.3 nM | – | – | –
UGAAUAGUGAUAGGAUAUACAUGAGGAAUCCUCGUAGAAGGAUCAUAACAUGAGGAUCACCCAUGUAGCGCUCGAAAGAGCGCA [Mat - Same State NG 1 - JL mod - D55] (Eterna round: R96, puzzle: Same State NG 1) | 244 nM | 207 nM | 56.5 nM | – | – | –

Sequence | apparent KD of MS2 coat protein (input ligand: FMN 200 uM) | apparent KD of MS2 coat protein [1] | apparent KD of MS2 coat protein (input ligand: none) | apparent KD of MS2 coat protein [2] | apparent KD of MS2 coat protein [3] | apparent KD of MS2 coat protein [4]
GCUGCGAUUAACGCCUACAUGAGGAUCACCCAUGUAUGUAGGCAGGAUAUCGUUUGCUUUGCAAACGAGAAGGGCUGUAGUAGC [salish99_SSNG3_R04_004] (Eterna round: R96, puzzle: Same State NG 3) | 39.4 nM | 68.4 nM | 86.9 nM | – | – | –
AGUGAACAUGAGGAUCACCCAUGUGAGAGAAGUGUAGGAUAUGUGAGGAGCAGAGGAGGAACAGAAGGACAUGGAG [JR_SS!_Sub073] (puzzle: Same State 1) | – | – | – | 29 nM | 36.8 nM | 48.5 nM
AGCUAGUACCGAGGAUAUACAUACAUGAGGAUCACCCAUGUAUACAUGAAAUAAUGAGACUACAUGUAGAAGGCGGUACUAGCA [Mat - Same State NG 2 - JL mod - D45] (Eterna round: R96, puzzle: Same State NG 2) | 16.9 nM | 43.5 nM | 63.4 nM | – | – | –
AUAGUUGCUGAAGGAUAUGAUGAGGAUCACCCAUCAGAAGGUUGGCUAUUGGGUGGACAUGAGGAUCACCCGUGUUCUUUGGUA (Eterna round: R96, puzzle: Same State NG 1) | 48.6 nM | 59.1 nM | 82.4 nM | – | – | –
AUAAGGCAAGCUUUUUUCUCGUAGUGUAAACAUGAGGAUCACCCAUGUGCCCACCCUGGAUCUUUGGAUCGCAAAAC [Ceatgeor] (puzzle: Sensor for hsa-mir-208a) | – | – | – | 23.9 nM | 18.6 nM | 23.7 nM
UAGGCUGGUACAGGAUAUGCCGUAUUUUAGUCGGCAGAAGGGUGCUCACAUGAGGAUCACCCAUGUAUACAGCCAGAUCAUGUU [MOD JMF Solution 2] (Eterna round: R96, puzzle: Same State NG 1) | 132 nM | 107 nM | 43.2 nM | – | – | –
AAAAGACAUGAGGAUCACCCAUGUACCAGGUCCACAGGAUAUCAUGCGUGGUUGAAUUCAUGAGAAGGGUGAGACA [Getied] (puzzle: Same State 1) | – | – | – | 48.7 nM | 188 nM | 311 nM
AGCUAGGUGGCAGGAUAUGGGCACACCUACAUGAGGAUCACCCAUGUCUAAAGGUUGCAAAAGGACCAGAAGGGCCACGCUAGC [Onzaislege] (Eterna round: R96, puzzle: Same State NG 2) | 19.2 nM | 82.7 nM | 178 nM | – | – | –
AGCUAGUACCGAGGAUAUACGAACAUGAGGAUCACCCAUGUAUACAUGGUUUAAUGAGACUACAUGUAGAAGGCGGUACUAGCA [SameState NG2 #11] (Eterna round: R96, puzzle: Same State NG 2) | 1110 nM | 281 nM | 624 nM | – | – | –
GUAUAACAUGAGGAUCACCCAUGUCAUCUAAGUCGAGGAUAUGGGAAUUAAUUAAUUAAACCAGAAGGCGAAAAUU [Mat - Same State 1 - D92] (puzzle: Same State 1) | – | – | – | 79 nM | 364 nM | 492 nM
AUAAGGCAAGCUUUUUUCUCGUUGUGUAAACAUGAGGAUCACCCAUGUGCCCACCCUGGAUCUUUGGAUCGCAGAAC [Mais] (puzzle: Sensor for hsa-mir-208a) | – | – | – | 40.8 nM | 17.5 nM | 40.8 nM
GUUAAACAUGAGGAUCACCCAUGUAAUAAUAUGGGAGGAUAUGCGAAAUUAAUUAAUUAAGCAGAAGGCCUAAUUG [Mat - Same State 1 - D98] (puzzle: Same State 1) | – | – | – | 38.3 nM | 148 nM | 217 nM
UGUUGUAUUACAGGAUAUCUAUUGUAUUUAUUUAGAGAAGGGUAUUCACAUGAGGAUCACCCAUGUAUAUACGAGGAAGUUGUG [JMF's solution 73] (Eterna round: R96, puzzle: Same State NG 1) | – | 46.7 nM | – | – | – | –
GUGGAGGGUUGAGGAUAUUGAAUACAUAUGUUUAACAUGAGGAUCACCCAUGUGGGUUGCGGUAUCGAGAAGGUAAAUUACUGG [salish99_SSNG2_r04_036] (Eterna round: R96, puzzle: Same State NG 2) | 80.9 nM | 79 nM | 86.3 nM | – | – | –
UGGUACAUGGGAGGAUAUGGGCAAGGGACAUGAGGAUCACCCAUGUAUUAAAAGCCGAAAGGCAUCUAGAAGGCCCAUGUACCU [JL SSNG1 3.87] (Eterna round: R96, puzzle: Same State NG 2) | 14 nM | 42.7 nM | 50.2 nM | – | – | –
